In PMC7904744, “Poly(ADP-ribosyl)ation enhances HuR oligomerization and contributes to pro-inflammatory gene mRNA stabilization”:

Legend:
Conditions in all cases: protein: recombinant; tags: GST; label: 5' biotin
GST-HuR = GST-HuR (UniProt Q15717 1-326); assay: EMSA; unmodified; multiple shifted bands (oligomer); EMSA: 3 mM MgCl2, 40 mM KCl, 5% glycerol, 2 mM DTT, 2 ug tRNA, 5 nM RNA, 40 min room temperature; pH not stated; 6% native acrylamide gel
GST-HuR-RRM1 [1] = molecular target: T1, GST-HuR-RRM1 (UniProt Q15717 20-98); assay: EMSA; no multiple shifted bands (Fig 4d); EMSA: 3 mM MgCl2, 40 mM KCl, 5% glycerol, 2 mM DTT, 2 ug tRNA, 5 nM RNA, 40 min room temperature; pH not stated; 6% native acrylamide gel
T1 sequence (Q15717 20-98): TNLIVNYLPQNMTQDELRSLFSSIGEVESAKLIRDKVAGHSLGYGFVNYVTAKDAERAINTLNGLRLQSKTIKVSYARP

GST-HuR-RRM1 [2] = molecular target: T1, GST-HuR-RRM1; assay: EMSA; EMSA: 3 mM MgCl2, 40 mM KCl, 5% glycerol, 2 mM DTT, 2 ug tRNA, 5 nM RNA, 40 min room temperature; pH not stated; 6% native acrylamide gel

Chain of GST-HuR (Q15717 whole entry): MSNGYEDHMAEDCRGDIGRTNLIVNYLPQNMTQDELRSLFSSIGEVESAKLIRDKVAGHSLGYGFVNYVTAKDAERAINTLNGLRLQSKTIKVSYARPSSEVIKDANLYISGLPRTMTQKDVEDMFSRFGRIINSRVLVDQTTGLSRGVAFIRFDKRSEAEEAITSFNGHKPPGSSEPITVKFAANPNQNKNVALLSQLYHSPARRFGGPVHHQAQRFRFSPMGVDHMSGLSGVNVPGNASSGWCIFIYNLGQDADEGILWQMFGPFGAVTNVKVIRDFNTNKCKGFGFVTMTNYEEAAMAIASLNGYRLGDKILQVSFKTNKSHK

CUAUGUAUUUAUUUAUUUAUUAAUU (ssRNA) [Cxcl2 ARE RNA oligo]
binding result (GST-HuR): binds
binding result (GST-HuR-RRM1 [1]): binds

AUUUAUUUAUUUAUUUAUUUAUUUA (ssRNA) [AU-rich RNA oligo (tandem ARE repeat)]
binding result (GST-HuR): binds
binding result (GST-HuR-RRM1 [2]): binds
